{"source": "paper PMC5007037", "molecular_target": "FcαRI (CD89) (human (endogenous in primary monocytes)) (UniProt P24071)", "sequence (P24071 22-287)": "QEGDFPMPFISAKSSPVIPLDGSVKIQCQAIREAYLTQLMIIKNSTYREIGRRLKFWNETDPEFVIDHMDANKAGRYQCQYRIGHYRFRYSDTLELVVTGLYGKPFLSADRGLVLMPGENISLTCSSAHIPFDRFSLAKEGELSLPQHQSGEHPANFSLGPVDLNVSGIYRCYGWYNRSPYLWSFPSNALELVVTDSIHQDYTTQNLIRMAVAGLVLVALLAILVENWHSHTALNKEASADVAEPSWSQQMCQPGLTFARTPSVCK"}
{"substance": "CH31 dIgA2 (antibody)", "values": [{"measurement": "percent blocking of IgA-mediated phagocytosis of 0.2 μm ConSgp140-conjugated beads by primary monocytes pre-incubated with 5 μg/ml anti-human CD89 mAb (MIP8a)", "value": 91.5, "unit": "%"}, {"measurement": "percent blocking of IgA-mediated phagocytosis of ConSgp140CFI-conjugated 1 μm beads by primary monocytes pre-incubated with anti-human CD89 mAb (MIP8a) at 1, 5 and 25 μg/ml (70%, 74%, 78%)", "value": 78, "unit": "%"}]}
